Data reported in patent US12679878B2, “CRF2 receptor agonists and their use in therapy” (SANOFI, priority 2020, dated 2026).
Starred links: 1 amine or outer side, 2 acyl side, 3 side chain; linkers in the order of their positions; H or OH if unused. Non-standard residues stand in square brackets, D forms with d. Groups on a side chain read outwards from the residue. No end group written: not given here. *: point of attachment. C18 diacid = O=C(O)CCCCCCCCCCCCCCCCC(=O)*; γGlu = O=C(O)[C@H](CCC(=O)[*:2])N[*:1]; AEEA = NCCOCCOCC(=O)O; Aib = CC(C)(N)C(=O)O

T1: anti-target CRF1R receptor (UniProt P34998 24-415, limits assumed)
T1 sequence (looked up): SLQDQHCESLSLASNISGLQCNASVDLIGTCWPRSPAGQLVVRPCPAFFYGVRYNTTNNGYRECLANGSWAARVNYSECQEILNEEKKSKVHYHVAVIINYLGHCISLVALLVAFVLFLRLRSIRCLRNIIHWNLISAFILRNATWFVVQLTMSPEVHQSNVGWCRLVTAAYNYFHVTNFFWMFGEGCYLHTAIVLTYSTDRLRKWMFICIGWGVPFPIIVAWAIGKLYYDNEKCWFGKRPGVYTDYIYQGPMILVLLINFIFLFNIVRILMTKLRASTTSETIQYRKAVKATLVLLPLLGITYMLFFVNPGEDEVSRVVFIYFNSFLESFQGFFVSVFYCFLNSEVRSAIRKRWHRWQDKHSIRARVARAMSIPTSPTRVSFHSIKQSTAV


Key:
[1] = target: T1, anti-target CRF1R receptor; assay: cell-based or functional assay
[2] = target: rat CRF2R α receptor (rat, UniProt P47866 20-411); assay: cell-based or functional assay
Chain of rat CRF2R α receptor (P47866 20-411): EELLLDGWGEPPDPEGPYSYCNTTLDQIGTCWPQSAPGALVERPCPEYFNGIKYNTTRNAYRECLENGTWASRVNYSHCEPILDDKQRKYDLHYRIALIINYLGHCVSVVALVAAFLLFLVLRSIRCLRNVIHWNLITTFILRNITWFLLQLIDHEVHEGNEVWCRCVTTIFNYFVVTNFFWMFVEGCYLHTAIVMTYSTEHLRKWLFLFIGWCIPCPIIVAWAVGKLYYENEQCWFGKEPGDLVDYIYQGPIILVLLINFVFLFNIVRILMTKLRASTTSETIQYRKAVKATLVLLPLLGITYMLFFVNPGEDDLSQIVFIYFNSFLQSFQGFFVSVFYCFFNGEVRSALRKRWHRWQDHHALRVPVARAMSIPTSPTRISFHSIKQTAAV

EC50[nM] 0% HSA (cAMP, CRF1R-overexpression CHO cells) [1] [nM] | Emax (%) (cAMP, CRF1R-overexpression CHO cells) [1] | EC50 [nM], 0% HSA (cAMP, A7R5 cells) [2] [nM] | Binder
> 1000 | 5.88 | 8.97 | IVLSLDVPIKLK([AEEA-AEEA-γGlu-C18 diacid])QILLEQAKQK[Aib]LRAQAETNVRILERV-NH2 (N-terminus assumed; SMILES CC[C@H](C)[C@H](N)C(=O)N[C@H](C(=O)N[C@@H](CC(C)C)C(=O)N[C@@H](CO)C(=O)N[C@@H](CC(C)C)C(=O)N[C@@H](CC(=O)O)C(=O)N[C@H](C(=O)N1CCC[C@H]1C(=O)N[C@H](C(=O)N[C@@H](CCCCN)C(=O)N[C@@H](CC(C)C)C(=O)N[C@@H](CCCCNC(=O)COCCOCCNC(=O)COCCOCCNC(=O)CC[C@H](NC(=O)CCCCCCCCCCCCCCCCC(=O)O)C(=O)O)C(=O)N[C@@H](CCC(N)=O)C(=O)N[C@H](C(=O)N[C@@H](CC(C)C)C(=O)N[C@@H](CC(C)C)C(=O)N[C@@H](CCC(=O)O)C(=O)N[C@@H](CCC(N)=O)C(=O)N[C@@H](C)C(=O)N[C@@H](CCCCN)C(=O)N[C@@H](CCC(N)=O)C(=O)N[C@@H](CCCCN)C(=O)NC(C)(C)C(=O)N[C@@H](CC(C)C)C(=O)N[C@@H](CCCNC(=N)N)C(=O)N[C@@H](C)C(=O)N[C@@H](CCC(N)=O)C(=O)N[C@@H](C)C(=O)N[C@@H](CCC(=O)O)C(=O)N[C@H](C(=O)N[C@@H](CC(N)=O)C(=O)N[C@H](C(=O)N[C@@H](CCCNC(=N)N)C(=O)N[C@H](C(=O)N[C@@H](CC(C)C)C(=O)N[C@@H](CCC(=O)O)C(=O)N[C@@H](CCCNC(=N)N)C(=O)N[C@H](C(N)=O)C(C)C)[C@@H](C)CC)C(C)C)[C@@H](C)O)[C@@H](C)CC)[C@@H](C)CC)C(C)C)C(C)C) [peptide of SEQ ID NO: 46]
> 1000 | 5.3 | 0.76 | FTLSLDVPTKIK([AEEA-AEEA-γGlu-C18 diacid])QILLKQQKQKKERQQAEKNKQLLERV-NH2 (N-terminus assumed; SMILES CC[C@H](C)[C@H](NC(=O)[C@H](CCC(N)=O)NC(=O)[C@H](CCCCNC(=O)COCCOCCNC(=O)COCCOCCNC(=O)CC[C@H](NC(=O)CCCCCCCCCCCCCCCCC(=O)O)C(=O)O)NC(=O)[C@@H](NC(=O)[C@H](CCCCN)NC(=O)[C@@H](NC(=O)[C@@H]1CCCN1C(=O)[C@@H](NC(=O)[C@H](CC(=O)O)NC(=O)[C@H](CC(C)C)NC(=O)[C@H](CO)NC(=O)[C@H](CC(C)C)NC(=O)[C@@H](NC(=O)[C@@H](N)Cc1ccccc1)[C@@H](C)O)C(C)C)[C@@H](C)O)[C@@H](C)CC)C(=O)N[C@@H](CC(C)C)C(=O)N[C@@H](CC(C)C)C(=O)N[C@@H](CCCCN)C(=O)N[C@@H](CCC(N)=O)C(=O)N[C@@H](CCC(N)=O)C(=O)N[C@@H](CCCCN)C(=O)N[C@@H](CCC(N)=O)C(=O)N[C@@H](CCCCN)C(=O)N[C@@H](CCCCN)C(=O)N[C@@H](CCC(=O)O)C(=O)N[C@@H](CCCNC(=N)N)C(=O)N[C@@H](CCC(N)=O)C(=O)N[C@@H](CCC(N)=O)C(=O)N[C@@H](C)C(=O)N[C@@H](CCC(=O)O)C(=O)N[C@@H](CCCCN)C(=O)N[C@@H](CC(N)=O)C(=O)N[C@@H](CCCCN)C(=O)N[C@@H](CCC(N)=O)C(=O)N[C@@H](CC(C)C)C(=O)N[C@@H](CC(C)C)C(=O)N[C@@H](CCC(=O)O)C(=O)N[C@@H](CCCNC(=N)N)C(=O)N[C@H](C(N)=O)C(C)C) [peptide of SEQ ID NO: 52]

The next lines start with the binder.

Binder | EC50[nM] 0% HSA (cAMP, CRF1R-overexpression CHO cells) [1] [nM] | Emax (%) (cAMP, CRF1R-overexpression CHO cells) [1] | EC50 [nM], 0% HSA (cAMP, A7R5 cells) [2] [nM]
IVLSLDVPIKLK([AEEA-AEEA-γGlu-C18 diacid])QILLEQERQRKERQQAETNAQILAQV-NH2 (N-terminus assumed; SMILES CC[C@H](C)[C@H](N)C(=O)N[C@H](C(=O)N[C@@H](CC(C)C)C(=O)N[C@@H](CO)C(=O)N[C@@H](CC(C)C)C(=O)N[C@@H](CC(=O)O)C(=O)N[C@H](C(=O)N1CCC[C@H]1C(=O)N[C@H](C(=O)N[C@@H](CCCCN)C(=O)N[C@@H](CC(C)C)C(=O)N[C@@H](CCCCNC(=O)COCCOCCNC(=O)COCCOCCNC(=O)CC[C@H](NC(=O)CCCCCCCCCCCCCCCCC(=O)O)C(=O)O)C(=O)N[C@@H](CCC(N)=O)C(=O)N[C@H](C(=O)N[C@@H](CC(C)C)C(=O)N[C@@H](CC(C)C)C(=O)N[C@@H](CCC(=O)O)C(=O)N[C@@H](CCC(N)=O)C(=O)N[C@@H](CCC(=O)O)C(=O)N[C@@H](CCCNC(=N)N)C(=O)N[C@@H](CCC(N)=O)C(=O)N[C@@H](CCCNC(=N)N)C(=O)N[C@@H](CCCCN)C(=O)N[C@@H](CCC(=O)O)C(=O)N[C@@H](CCCNC(=N)N)C(=O)N[C@@H](CCC(N)=O)C(=O)N[C@@H](CCC(N)=O)C(=O)N[C@@H](C)C(=O)N[C@@H](CCC(=O)O)C(=O)N[C@H](C(=O)N[C@@H](CC(N)=O)C(=O)N[C@@H](C)C(=O)N[C@@H](CCC(N)=O)C(=O)N[C@H](C(=O)N[C@@H](CC(C)C)C(=O)N[C@@H](C)C(=O)N[C@@H](CCC(N)=O)C(=O)N[C@H](C(N)=O)C(C)C)[C@@H](C)CC)[C@@H](C)O)[C@@H](C)CC)[C@@H](C)CC)C(C)C)C(C)C) [peptide of SEQ ID NO: 39] | > 1000 | 13.3 | 2.04
IVLSLD[dV]PTKLK([AEEA-AEEA-γGlu-C18 diacid])QKLLKQERQRKEREQAEKNKRILERV-NH2 (N-terminus assumed; SMILES CC[C@H](C)[C@H](N)C(=O)N[C@H](C(=O)N[C@@H](CC(C)C)C(=O)N[C@@H](CO)C(=O)N[C@@H](CC(C)C)C(=O)N[C@@H](CC(=O)O)C(=O)N[C@@H](C(=O)N1CCC[C@H]1C(=O)N[C@H](C(=O)N[C@@H](CCCCN)C(=O)N[C@@H](CC(C)C)C(=O)N[C@@H](CCCCNC(=O)COCCOCCNC(=O)COCCOCCNC(=O)CC[C@H](NC(=O)CCCCCCCCCCCCCCCCC(=O)O)C(=O)O)C(=O)N[C@@H](CCC(N)=O)C(=O)N[C@@H](CCCCN)C(=O)N[C@@H](CC(C)C)C(=O)N[C@@H](CC(C)C)C(=O)N[C@@H](CCCCN)C(=O)N[C@@H](CCC(N)=O)C(=O)N[C@@H](CCC(=O)O)C(=O)N[C@@H](CCCNC(=N)N)C(=O)N[C@@H](CCC(N)=O)C(=O)N[C@@H](CCCNC(=N)N)C(=O)N[C@@H](CCCCN)C(=O)N[C@@H](CCC(=O)O)C(=O)N[C@@H](CCCNC(=N)N)C(=O)N[C@@H](CCC(=O)O)C(=O)N[C@@H](CCC(N)=O)C(=O)N[C@@H](C)C(=O)N[C@@H](CCC(=O)O)C(=O)N[C@@H](CCCCN)C(=O)N[C@@H](CC(N)=O)C(=O)N[C@@H](CCCCN)C(=O)N[C@@H](CCCNC(=N)N)C(=O)N[C@H](C(=O)N[C@@H](CC(C)C)C(=O)N[C@@H](CCC(=O)O)C(=O)N[C@@H](CCCNC(=N)N)C(=O)N[C@H](C(N)=O)C(C)C)[C@@H](C)CC)[C@@H](C)O)C(C)C)C(C)C) [peptide of SEQ ID NO: 24] | > 1000 | 1.48 | 4.94
